From publication PMC6026870, “Selective induction of cancer cell death by VDAC1‐based peptides and their potential use in cancer therapy” (Molecular Oncology, 2018)

Molecular target: voltage‐dependent anion channel 1 (VDAC1) (human (endogenous in HeLa), UniProt P21796 1-283)
Assay: cell-based or functional assay

HK‐I in the cytosolic fraction (0.025% digitonin fractionation, immunoblot) of A549 cells treated with Tf‐D‐LP4 (3, 5, 10 μM, 3 h): ~2 fold
HK‐I in the cytosolic fraction (0.025% digitonin fractionation, immunoblot) of HeLa cells treated with R‐Tf‐D‐LP4 (3, 5, 10 μM, 3 h): ~2 fold
B1: Human hexokinase I (HK‐I), recombinant (enzyme, UniProt P19367 1-917, looked up)
chain: MIAAQLLAYYFTELKDDQVKKIDKYLYAMRLSDETLIDIMTRFRKEMKNGLSRDFNPTATVKMLPTFVRSIPDGSEKGDFIALDLGGSSFRILRVQVNHEKNQNVHMESEVYDTPENIVHGSGSQLFDHVAECLGDFMEKRKIKDKKLPVGFTFSFPCQQSKIDEAILITWTKRFKASGVEGADVVKLLNKAIKKRGDYDANIVAVVNDTVGTMMTCGYDDQHCEVGLIIGTGTNACYMEELRHIDLVEGDEGRMCINTEWGAFGDDGSLEDIRTEFDREIDRGSLNPGKQLFEKMVSGMYLGELVRLILVKMAKEGLLFEGRITPELLTRGKFNTSDVSAIEKNKEGLHNAKEILTRLGVEPSDDDCVSVQHVCTIVSFRSANLVAATLGAILNRLRDNKGTPRLRTTVGVDGSLYKTHPQYSRRFHKTLRRLVPDSDVRFLLSESGSGKGAAMVTAVAYRLAEQHRQIEETLAHFHLTKDMLLEVKKRMRAEMELGLRKQTHNNAVVKMLPSFVRRTPDGTENGDFLALDLGGTNFRVLLVKIRSGKKRTVEMHNKIYAIPIEIMQGTGEELFDHIVSCISDFLDYMGIKGPRMPLGFTFSFPCQQTSLDAGILITWTKGFKATDCVGHDVVTLLRDAIKRREEFDLDVVAVVNDTVGTMMTCAYEEPTCEVGLIVGTGSNACYMEEMKNVEMVEGDQGQMCINMEWGAFGDNGCLDDIRTHYDRLVDEYSLNAGKQRYEKMISGMYLGEIVRNILIDFTKKGFLFRGQISETLKTRGIFETKFLSQIESDRLALLQVRAILQQLGLNSTCDDSILVKTVCGVVSRRAAQLCGAGMAAVVDKIRENRGLDRLNVTVGVDGTLYKLHPHFSRIMHQTVKELSPKCNVSFLLSEDGSGKGAALITAVGVRLRTEASS
modifications: fluorescently labeled using a NanoTemper BLUE protein‐labeling kit (in the MST)
